{
  "source": "paper PMC5110560",
  "about": "“A Wheat Cinnamyl Alcohol Dehydrogenase TaCAD12 Contributes to Host Resistance to the Sharp Eyespot Disease” (Frontiers in Plant Science, 2016)",
  "proteins": {"B1": {"name": "TaCAD12 (GST-TaCAD12) (Triticum aestivum) (protein)", "chain": "MAPTATAAEQSQQHTKKAVGLAALDASGHLSPLAITRRSTGDDDVVIKILYCGICHSDLHSIKNDWKNAKYPMIPGHEIAGEVTEVGKNVTKFKAGDRVGVGCMVNSCQSCESCDKGFENHCPGMIFTYNSVDRDGTRTHGGYSSMVVVHERFVVRFPDAMPLDKGAPLLCAGITVYSPMKYHGLNAPGMHLGVLGLGGLGHVAVKFGKAFGMKVTVISSSPGKKQEALERLGADAFVVSKDADEMKATMSTMDGIINTVSANVPMAPLFGLLKPNGKMIMVGLPEKPIEVPPFALVARNKTLAGSCIGGMRDTQEMLDLAAKHGVTADIEVIGAEYVNTAMERLAKADVRYRFVIDIANTLDKAAAATTE", "notes": "N-terminal GST fusion (pGEX-4T-1), expressed in E. coli BL21, purified; tag kept"}},
  "key": {"[1]": {"substrate": "COc1cc(/C=C/C=O)ccc1O", "test": "purified protein", "assay_type": "biochemical, Triticum aestivum", "conditions": "NADPH as co-substrate; GST fusion"}, "[2]": {"substrate": "COc1cc(/C=C/C=O)cc(OC)c1O", "test": "purified protein", "assay_type": "biochemical, Triticum aestivum", "conditions": "NADPH as co-substrate; GST fusion"}},
  "data": [
    {"protein": "B1", "values": [
      {"measurement": "Km", "setting": "[1]", "value": "28.91 ± 3.67", "unit": "µM"},
      {"measurement": "Km", "setting": "[2]", "value": "34.18 ± 5.56", "unit": "µM"}
    ]}
  ]
}
